# The nanobody polyreactivity screen of Harvey et al. (2022)
# Test: yeast display, Sf9 membrane polyspecificity reagent, FACS + sequencing; frameworks hold sequencing errors
# Outline: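 Galactose-induced (36–48 hours) yeast carrying a synthetic nanobody display library were exposed to 10% biotinylated, detergent-solubilized Sf9 membrane reagent at 4 °C for 1 hour. FACS followed streptavidin microbead enrichment, using low and high (top ~1%) gates for expression (anti-HA) and reagent binding (streptavidin). Colony PCR, MiSeq 2 × 250 sequencing and CDR-length filtering followed. Labels for polyreactivity reflect the gate of origin.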
row,Sequence,polyreactivity (PSR sort gate)
1,QVQLVESGGGLVQAGGILRLSCAASGRIFRGYAMGWYIQAPAKERELVASIDWNGGRTYYADSEKGRFTISRDNAKNTVYLQMNSLKPEDTAVYYCAVLPYRTLYNYYYWGQGTQVTVSS,high polyreactivity
2,QVQLVESGGGLVQAGGILRLSCAASGRIFRYYAMGWYRQAPGKERELVAGITRGGTTNYADSVKGRFTISRDNAKNTVYLQMNSLKPEDTAVYYCAAETRRGIIGYDYWGQGTKVTVSS,high polyreactivity
3,QVQLVESGGGLVQAGGILRLSCAASGRIFSSYSMGWYRQAPGKESELVAAISRSGARTYYADSVKGRFTISRDYAKNTVYLQMNSLKPEDTAVYYCAAVTVAGYDYWGQGTQVTVSS,high polyreactivity
4,QVQLVESGGGLVQAGGILRLSCAASGRIFTPYTMGWYRQAPGKERELVATITWSGGSTYYADSVKGRFTISRDNAKNTVYLQMNSLKPEDTAVYYCAARPIYVWAEYDYWGQGTQVTVSS,low polyreactivity
5,QVQLVESGGGLVQAGGILRLSCAASGRIFYNYAMGWYRQAPGKERELGAAISGSGGSTYYADSVKGRFTISRDNAKNTVYLQMNSLKPEDTAVYYCSTSGPQYDSRNFDYWGQGTQVTVSS,low polyreactivity
6,QVQLVESGGGLVQAGGILRLSCAASGRIINIYAMGWYRQAPGKEREMVAAISGSGGRTSYADSVKGRFTFSRDNAKNTVYLQMNILKPEDTAVYYCAADYSYYTSFRYDYWGQGTQVTVSS,low polyreactivity
7,QVQLVESGGGLVQAGGILRLSCAASGRILVSYAMGWYRQAPGKERELVAAISRSGGSTYYADSVKGRFTISRDNAKNTVYLQMNSLKPEDTAVYYCNVYRFSRYDYWGQGTQVTVSS,high polyreactivity
8,QVQLVESGGGLVQAGGILRLSCAASGRTFYINGMGWYRQAPGKEREFVASITWRGGRTYYADSVKGRFTISRDNAKNTVYLQMNSLKPEDTAVYYCIAVGLGGRAPSRWYTHYYCGQGTQVTVSS,high polyreactivity
9,QVQLVESGGGLVQAGGILRLSCAASGRTLSKNAMGWYRQAPGKERELVATISSVGRTNYADSVKGRFTISRDNEKITVYLQMISLKPEDTAVYYCSARRFRGSYYWGQGTQVTVSS,high polyreactivity
10,QVQLVESGGGLVQAGGILRLSCAASGRTVHNYVMAWYRQAPWNERELVAAITAGVGSTYYADSVKGRFTISRDNAKNTVYFQMNSLKPEDTAVYYCAARKVWGYTYGYPYYYWGQGTQETVSS,high polyreactivity
11,QVQLVESGGGLVQAGGILRLSCAASGSIFGLYAMVWYRQAPGKERELVAAISPRGGSTYYADSVKGRFTISRDNAKNTVYLQMNILKPEDTAVYYCNRDYIRYALGHDYWGQGPQVTVSS,high polyreactivity
12,QVQLVESGGGLVQAGGILRLSCAASGSIFRQNPMGWYRKAPGKERELVAAISSGGSTYYADSVKGRFTISRDNAKNNVYLQRNSLKPEDTAVYYCAAYHSFVWGDDYWGQGTQVTVSS,low polyreactivity
13,QVQLVESGGGLVQAGGILRLSCAASGSIFRVYAMGWYRQAPGKERELVAGITSTGTRTYYADSVKGRFTISRDNAKNPVSLQKNSLKPEDTAVYYCAARDTYRKAYYYWGHGTQVTVSS,high polyreactivity
14,QVQLVESGGGLVQAGGILRLSCAASGSIFVKYTMGWYRQAPGKERELVAAISFRGGSTYYADSVKGRFTISRDNAKNTVYLQMNSLKPEDTAVYYCNADGGWWPEYYWGQGTQVTVSS,low polyreactivity
15,QVQLVESGGGLVQAGGILRLSCAASGSIIYVNAMGWYRQAPGKERELVAAISVRGGRTYYADSVKGRFTISRDNAKNSVYLQMISLKPEDTAVYDCAAGWYYYARPRVYNAREYYYWGQGTQVNVSS,high polyreactivity
16,QVQLVESGGGLVQAGGILRLSCAASGSIVSYYDMGWYRQAPGKERELVAAITYTGGSTYYADSVKGRFTISRDNAKNTVYLQMNSLKPEDTEVYYCAAQWTIYPLFNSWGQGNQVTVSS,low polyreactivity
17,QVQLVESGGGLVQAGGILRLSCAASGSNFGYYVMGWYRQAPGKERELVAGISTGGSTYYADSVKGRFTISRDNAKNTVYLQMNSLKPEDTAVYYCAADYTLSYWGFVYWGQGTQVTVSS,low polyreactivity
18,QVQLVESGGGLVQAGGILRLSCAASGSTFESNTMGGYRQAPGKERELVAAISYSGGRTYYADSVKGRFTISRDNAKNTVYLQMNSLKPEDTAVYYCAARWSVSYHYWGQGTQVTVSS,high polyreactivity
19,QVQLVESGGGLVQAGGILRLSCAASGSTFVPNTMAWYRQAPGKERELVAAITYSGGSTYYADSVKGRFTISRDNAKNTVYLQMNSLKPEDTAVYYCAAEGTTWYYDMDYWGQGTQVTVSS,low polyreactivity
20,QVQLVESGGGLVQAGGILRLSCAASGSTLGYYAMGWYRQAPGKERELVAAISWSGGRTYYADSVKGRFTISRDNAKNTVYLQMNSLKQEDTAFYYCNALNRTHYTGSDFYSWGQGTQVTVSS,high polyreactivity
21,QVQLVESGGGLVQAGGILRLSCAASGYTFYFYAMGWYRQAPGKERELVAAITGGGTTSYADSVKGRFTISRDNAKNTVYLQMNSLKPEDTAVYYCNVLFADKSDYWGQGTQVTVSS,low polyreactivity

row,Sequence,polyreactivity (PSR sort gate)
1,QVQLVESGGGLVQAGGILRLSCASSGSTFPTNAMGWYTQAPGKERELVAAISSSGGRTYYADSVKGRFTISRDNAKNTVDLQMNSLKPEDTAVYSCAAVWWRAYAVRMYYWGQGTQVTVSS,high polyreactivity
2,QVQLVESGGGLVQAGGILRLSCDASGFTFGYYTMGWYRQAHGKEREFVAAITGGSGSTYYADSVKGRFTISRDNAKNTVYLQMNSLKPEDTAVYYCAASIWRGLTPLLIGFDYWGQGTQVTVSS,high polyreactivity
3,QVQLVESGGGLVQAGGILRLSCSASGRIFQFYAMGWYRQAPGKERELVAGISWSGGSTNYADSVKGRFTISRDNAKNTVYLQMNSLKPEDSAVYYCNVDLYNWRGDSTGYDYWGQGTQVTVSS,low polyreactivity
4,QVQLVESGGGLVQAGGILRLSWAASGRTFRYYAMGWYRQAPGKDREFVAAISWSGGSTYYADSVKGRFTISRDNAKNTVYLQMNSLKPEDTAVFYCAAESIYTWGIRGAYWGQGTQVTVSS,high polyreactivity
5,QVQLVESGGGLVQAGGILSLSCAASGIIFYTYAMGWYRQAPGKERELVATISWDVDSTNYADSVKGRFTISRDNAKNTVYLQMNSLKPEDTAVYYCAVDYTFDSYWYWVDYYEYGYWGQGTQVTVTS,high polyreactivity
6,QVQLVESGGGLVQAGGILSLSCAASGLIFRKNAKGWYRQAPGKEMELVAAISGRGGITYYADSVKGRFTISRDNAKNTVYLQMNSLKPEDTAVYYCATRFYRPRDGLYDYWGHGTQVTVSS,high polyreactivity
7,QVQLVESGGGLVQAGGILSLSCAASGNIFAYNAMGWYRQAPGKERELVAAITDSGGNTFYADSVKGRFTISRDNAKNTVYLQMISVKPEDTAVYYCAADPDGWGFVYPRYVSWGQGTQVTVSS,low polyreactivity
8,QVQLVESGGGLVQAGGNLRLSCAASGFKFTSYAMGCYIQAPGKERELVAAISTSGDRTYYADSVKGRFTISRDNAKNTVYLQMNSLQPEDTAVYYSAVVRPRSVVRYDSWGQGTQVTVSS,high polyreactivity
9,QVQLVESGGGLVQAGGRHRLSCAASGFIFHVYAMGWYRQAPGKERELVAAISSGGSTYYADSVKGRFTISRDNAKNTVYLQMNSLKPEDTAVYYCNGARSRYRYRYDYWGQGTQVTVSS,high polyreactivity
10,QVQLVESGGGLVQAGGRLLLSCAASGSTFTRNAMGWYRPAPGKERELVAAISSSGSRTYYADSVKGRFTISRDNAKNTVYLQMNSLIPADTAVYYCNKTKHSYLYTDDDYWGQGTQVTVSS,high polyreactivity
11,QVQLVESGGGLVQAGGRLRISCAASGFTFEYNDMGWYRQAPGKERELVASISYDSDSTYYADSVKGRFTISRDNAKNTVYLQMNSLKPEDTAVYYCNAGSSYHEYGYWGQGTQVTVSS,high polyreactivity
12,QVQLVESGGGLVQAGGRLRISCAASGRIFTYNTLGWSRQEPGKERELVAAIRTGGSTNYADSVKGRFTISRDNAKITVNLQMNSLKPEDTAVSYCNTVRHSTSDYWYDFWGQGTQVTLSS,low polyreactivity
13,QVQLVESGGGLVQAGGRLRISCAASGRTFGHYAMGWYRQAPGKQRELVAAINRSGGITYYADSVRGRFTISRDNAKNTVYLQMNSLKPEDPAVDYCAAASPGRYDYWGQGTQETVSS,high polyreactivity
14,QVQLVESGGGLVQAGGRLRISCAASGSIFGTYTMGWYRLAPGEERELVAAITSDGRTYYADSVKGRFTISRDNAKNTVYLQMNSLKPEDTAVYYCAADSSGYYWFNYWGQGTQVTVSS,low polyreactivity
15,QVQLVESGGGLVQAGGRLRLICAASGRIFYSYAMGWYRQAPGKERELVAAISFSVGSTYYADSVKGRFTISRDNAKNTVYLQMNSLKPEDTAVYYCAASLGFPGYEYWGQGTQVTVSS,low polyreactivity
16,QVQLVESGGGLVQAGGRLRLICDASGRIFYRYAIGWYRQAPGKERELVAVITSSGGRTYYADSVKGRFTISRDTAKNTVYLPMNSLKPEDTAVYYCTAYVRRIVRSYYWGQGTQVTVSS,high polyreactivity
17,QVQLVESGGGLVQAGGRLRLISAASGSIFYYNAMGWYRQAPGKERELVAAISWSADSTYYADSVKGRFTISRDNAKNTVYLQMNSLKPEDSAAYYCNTDLVPWTEYWYDYWGQGTQVTVSS,low polyreactivity
18,QVQLVESGGGLVQAGGRLRLRCAASGFTFRYNAMGCNRQAPGKERELVATISSGASTYYADSVKGRFTISRDNAKNTVYFQMNSLIPVDSAVYYCAADDLGLWFYSGVDDYYYCGQGTQVTVSS,low polyreactivity
19,QVQLVESGGGLVQAGGRLRLRCAASGSTFSYYAMGWYRQAPGKERELVADISSGGTTNYADSVKGRFTISRDNAKNTVYLQMNSLKPEDTSVYYCNRRYSYYDGFDYWGQGTQVTVSS,low polyreactivity
20,QVQLVESGGGLVQAGGRLRLSCAAAGSTFDGNAMGWYRQAPGKERELVADIDSIGGSTYYADSVKGRFTISRDNAKNTVYLQMNSLKPEDTAVYYCADRRFDTALVLYDYWGQGTQVTVSS,low polyreactivity
